Positions count from the first letter of the chain named.
B1: HuAb005 (antibody, V domains shown)
VH: QVQLVQSGAEVKKPGASVKVSCKASGYRFTDYELHWVRQAPGQGLEWMGGIDPKTGGTAYNQKFKGRVTMTSDRSTSTVYMELSSLRSEDTAVYYCARSGGRWYFDVWGQGTTVTVSS
VL: DIVLTQSPASLAVSPGQRATITCRTSESVSIHLLHLMHWYQQKPGQPPKLLIYGASNLESGVPARFSGSGSGTDFTLTINPVEAEDTANYYCQQSIKDPYTFGGGTKVEIK
notes: Humanized version of cmAb011; also called humanized VL1 / humanized VH2
B2: HuAb001 (antibody, V domains shown)
VH: B1 VH with S72R, R74T
VL: B1 VL
notes: Humanized version of cmAb011; also called humanized VL1 / humanized VH1
B3: HuAb002 (antibody, V domains shown)
VH: B1 VH with S72R, R74T
VL: B1 VL with G72E
notes: Humanized version of cmAb011; also called humanized VL2 / humanized VH1
B4: HuAb006 (antibody, V domains shown)
VH: B1 VH
VL: B1 VL with G72E
notes: Humanized version of cmAb011; also called humanized VL2 / humanized VH2
B5: HuAb007 (antibody, V domains shown)
VH: B1 VH
VL: DIVMTQSPDSLAVSLGERATINCRTSESVSIHLLHLMHWYQQKPGQPPKLLIYGASNLESGVPDRFSGSGSGTDFTLTISSLQAEDVAVYYCQQSIKDPYTFGGGTKVEIK
notes: Humanized version of cmAb011; also called humanized VL3 / humanized VH2
B6: HuAb008 (antibody, V domains shown)
VH: B1 VH
VL: B5 VL with M4L, G72E
notes: Humanized version of cmAb011; also called humanized VL4 / humanized VH2
B7: HuAb009 (antibody, V domains shown)
VH: B1 VH with R38K, M48I
VL: B1 VL
notes: Humanized version of cmAb011; also called humanized VL1 / humanized VH3
B8: HuAb010 (antibody, V domains shown)
VH: B1 VH with R38K, M48I
VL: B1 VL with G72E
notes: Humanized version of cmAb011; also called humanized VL2 / humanized VH3
B9: HuAb014 (antibody, V domains shown)
VH: B1 VH with R67K, M70L
VL: B1 VL with G72E
notes: Humanized version of cmAb011; also called humanized VL2 / humanized VH4
B10: HuAb017 (antibody, V domains shown)
VH: B1 VH with R38K, M48I, R67K, M70L
VL: B1 VL
notes: Humanized version of cmAb011; also called humanized VL1 / humanized VH5
B11: HuAb018 (antibody, V domains shown)
VH: B1 VH with R38K, M48I, R67K, M70L
VL: B1 VL with G72E
notes: Humanized version of cmAb011; also called humanized VL2 / humanized VH5
B12: HuAb011 (antibody, V domains shown)
VH: B1 VH with R38K, M48I
VL: B5 VL
notes: Humanized version of cmAb011; also called humanized VL3 / humanized VH3
B13: HuAb012 (antibody, V domains shown)
VH: B1 VH with R38K, M48I
VL: B5 VL with M4L, G72E
notes: Humanized version of cmAb011; also called humanized VL4 / humanized VH3
B14: HuAb015 (antibody, V domains shown)
VH: B1 VH with R67K, M70L
VL: B5 VL
notes: Humanized version of cmAb011; also called humanized VL3 / humanized VH4
B15: HuAb016 (antibody, V domains shown)
VH: B1 VH with R67K, M70L
VL: B5 VL with M4L, G72E
notes: Humanized version of cmAb011; also called humanized VL4 / humanized VH4
B16: HuAb019 (antibody, V domains shown)
VH: B1 VH with R38K, M48I, R67K, M70L
VL: B5 VL
notes: Humanized version of cmAb011; also called humanized VL3 / humanized VH5
B17: HuAb020 (antibody, V domains shown)
VH: B1 VH with R38K, M48I, R67K, M70L
VL: B5 VL with M4L, G72E
notes: Humanized version of cmAb011; also called humanized VL4 / humanized VH5
B18: HuAb003 (antibody, V domains shown)
VH: B1 VH with S72R, R74T
VL: B5 VL
notes: Humanized version of cmAb011; also called humanized VL3 / humanized VH1
B19: HuAb004 (antibody, V domains shown)
VH: B1 VH with S72R, R74T
VL: B5 VL with M4L, G72E
notes: Humanized version of cmAb011; also called humanized VL4 / humanized VH1

Legend:
[1] = target: T1, cynomolgus IL-7Ra expressed on CHOK1-cyno IL-7Ra cells (cynomolgus, UniProt Q38IC7 21-459); experiment: flow cytometry, CHOK1-cyno IL-7Ra cells
T1 sequence: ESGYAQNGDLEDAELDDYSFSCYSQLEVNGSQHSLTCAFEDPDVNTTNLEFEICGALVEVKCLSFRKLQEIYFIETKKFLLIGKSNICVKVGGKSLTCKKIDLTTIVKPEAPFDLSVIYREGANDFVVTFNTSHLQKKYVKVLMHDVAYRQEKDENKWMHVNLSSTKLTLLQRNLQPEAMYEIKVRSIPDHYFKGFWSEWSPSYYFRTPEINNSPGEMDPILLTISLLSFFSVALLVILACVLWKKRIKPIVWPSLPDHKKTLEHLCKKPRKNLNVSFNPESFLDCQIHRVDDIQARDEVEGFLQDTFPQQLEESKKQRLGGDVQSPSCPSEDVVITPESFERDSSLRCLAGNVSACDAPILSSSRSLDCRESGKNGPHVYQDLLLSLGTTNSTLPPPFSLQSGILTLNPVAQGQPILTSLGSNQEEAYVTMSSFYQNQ

[2] = target: T2, human IL-7Ra expressed on CHOK1-human IL-7Ra cells (human, UniProt P16871 21-459); experiment: flow cytometry, CHOK1-human IL-7Ra cells
T2 construct: also called human IL-7Ra expressed on cell membrane; CD127
T2 sequence: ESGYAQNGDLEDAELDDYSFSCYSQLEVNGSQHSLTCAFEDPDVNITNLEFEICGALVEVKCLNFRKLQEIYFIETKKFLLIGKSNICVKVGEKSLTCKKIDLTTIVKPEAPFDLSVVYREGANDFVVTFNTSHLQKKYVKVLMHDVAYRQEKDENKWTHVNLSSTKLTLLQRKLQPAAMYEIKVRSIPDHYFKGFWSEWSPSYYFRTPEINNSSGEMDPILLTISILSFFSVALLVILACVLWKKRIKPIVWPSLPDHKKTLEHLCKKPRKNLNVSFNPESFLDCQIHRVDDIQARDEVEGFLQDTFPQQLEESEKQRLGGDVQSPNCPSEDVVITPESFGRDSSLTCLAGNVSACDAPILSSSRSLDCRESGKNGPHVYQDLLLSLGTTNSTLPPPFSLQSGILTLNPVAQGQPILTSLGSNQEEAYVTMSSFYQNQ

[3] = target: T3, Human his-tag IL-7Ra protein (human, UniProt P16871 21-239); experiment: SPR Biacore 8K, antibody Fc-captured, human his-tag IL-7Ra analyte, 1:1 model
T3 construct: Construct not described; Position of the tag unknown; also called IL-7Ra (Biacore analyte); not shown: his tag
T3 sequence: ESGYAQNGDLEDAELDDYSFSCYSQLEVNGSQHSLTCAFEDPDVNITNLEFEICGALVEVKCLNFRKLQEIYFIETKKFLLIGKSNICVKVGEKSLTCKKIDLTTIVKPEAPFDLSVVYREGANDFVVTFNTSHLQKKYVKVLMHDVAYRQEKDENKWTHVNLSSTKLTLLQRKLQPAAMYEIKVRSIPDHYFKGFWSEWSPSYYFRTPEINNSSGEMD

Binder	EC50 [1] [µg/mL]	Top (MFI) [1] [MFI]	EC50 [2] [µg/mL]	Top (MFI) [2] [MFI]	Kd [3] [nM]	koff [3] [s⁻¹]	kon [3] [M⁻¹ s⁻¹]
B1	0.207	16900	0.188	22300	0.214	0.000238	1.11e+06
B2	0.167	16000	0.17	22300	–	–	–
B3	0.126	15900	0.115	22600	–	–	–
B4	0.191	16700	0.177	21600	–	–	–
B5	0.244	17100	0.209	21100	–	–	–
B6	0.221	17600	0.171	20400	0.118	0.00031	2.64e+06
B7	0.0711	16600	0.0719	20900	0.188	0.000267	1.42e+06
B8	0.175	17500	0.152	20600	–	–	–
B9	0.0534	16700	0.0529	23900	–	–	–
B10	0.0891	17700	0.0778	24600	–	–	–
B11	0.0988	18400	0.105	24100	–	–	–
B12	0.241	17700	0.256	20500	–	–	–
B13	0.165	17000	0.159	20300	–	–	–
B14	0.189	17400	0.158	24100	–	–	–
B15	0.128	17100	0.113	23700	–	–	–
B16	0.687	18000	0.536	22800	–	–	–
B17	0.124	17600	0.115	22500	–	–	–
B18	0.239	16100	0.21	21700	0.212	0.000342	1.61e+06
B19	0.206	16200	0.2	21500	0.181	0.00029	1.6e+06
